# In US4496689A, “Covalently attached complex of alpha-1-proteinase inhibitor with a water soluble polymer” (Miles Laboratories, Inc., priority 1983, dated 1985):
# B1: PEG-1900-catalase: bovine liver catalase covalently modified with methoxypolyethylene glycol of 1900 daltons using cyanuric chloride (Abuchowski et al) (conjugate, UniProt P00432 2-527, looked up)
# Catalase: ADNRDPASDQMKHWKEQRAAQKPDVLTTGGGNPVGDKLNSLTVGPRGPLLVQDVVFTDEMAHFDRERIPERVVHAKGAGAFGYFEVTHDITRYSKAKVFEHIGKRTPIAVRFSTVAGESGSADTVRDPRGFAVKFYTEDGNWDLVGNNTPIFFIRDALLFPSFIHSQKRNPQTHLKDPDMVWDFWSLRPESLHQVSFLFSDRGIPDGHRHMNGYGSHTFKLVNANGEAVYCKFHYKTDQGIKNLSVEDAARLAHEDPDYGLRDLFNAIATGNYPSWTLYIQVMTFSEAEIFPFNPFDLTKVWPHGDYPLIPVGKLVLNRNPVNYFAEVEQLAFDPSNMPPGIEPSPDKMLQGRLFAYPDTHRHRLGPNYLQIPVNCPYRARVANYQRDGPMCMMDNQGGAPNYYPNSFSAPEHQPSALEHRTHFSGDVQRFNSANDDNVTQVRTFYLKVLNEEQRKRLCENIAGHLKDAQLFIQKKAVKNFSDVHPEYGSRIQALLDKYNEEKPKNAVHTYVQHGSHLSAREKANL
# modifications: mPEG 1900
# B2: PEG-5000-catalase: bovine liver catalase covalently modified with methoxypolyethylene glycol PEG-5000 using cyanuric chloride (Abuchowski et al) (conjugate, UniProt P00432 2-527, looked up)
# Catalase: B1 Catalase
# modifications: mPEG 5000
# What was measured:
# elastase [1] = biological target: T1, elastase (Sus scrofa, UniProt P00772); assay: pH stability (pH 3.0), recovery of EIC; assay type: physicochemical, porcine; details: pH 3.0 for 24 hours at +5° C.; for Recovery of EIC as % of Control After Adjustment to pH 7.4, Incubation Time 24 hrs. (5° C.): back to pH 7.40, further 24 hrs. at 5° C.; for Recovery of EIC as % of Control After Adjustment to pH 7.4, Immediate: then back to pH 7.40, assayed immediately
# T1 construct: purchased Sigma Chemicals Co. (St. Louis, MO)
# Experimental: In order to investigate the pH stability of these preparations, experimental samples were adjusted to pH 3.0 with controls at pH 7.40 and incubated for 24 hours at +5° C. Following this, pH was adjusted back up to 7.40 for the experimental samples and EIC assays carried out immediately. Samples were further incubated for 24 hours at +5° C. and reassayed.
# [2] = biological target: T2, Porcine pancreatic elastase type III (Sus scrofa, UniProt P00772); assay: Association rate constant (kassoc) between enzyme and inhibitor; assay type: biochemical; details: for t0.5 (half life of the enzyme-inhibitor association reaction) / kassoc, rate constant for the association between the enzyme and the inhibitor: equimolar enzyme and inhibitor, 3.37×10^-7, 37° C., pH 7.4; for kassoc, rate constant for the association between the enzyme and the inhibitor: calculated by equation (4); for Initial Reac. Rate: 37° C.
# T2 construct: purchased Sigma Chemicals Co. (St. Louis, MO)
# Experimental: Association constants (kassoc) between the enzyme (E) and the inhibitor (I) were determined as follows: 25 μl each of equimolar amounts of the enzyme and the inhibitor were incubated at 37° C. with 1950 μl of buffer (0.05M TRIS, 0.15M NaCl, pH 7.4) (TRIS® is tris(hydroxymethyl)amino methane, supplied by Sigma, St. Louis, Mo.) to obtain a resultant concentration of 3.37×10^-7. At various times, a 200 μl aliquot of the enzyme-inhibitor solution was added to 780 μl buffer and 20 μl substrate (SA3 pNA) (60 mM) and the hydrolysis rate followed in the temperature controlled (37° C.) cuvette with a recorder (Model 6051, Gilford Instruments, Oberlin, Ohio) attachment. During hydrolysis no further enzyme-inhibitor association was assumed (5 fold dilution compared to preincubation) and the initial reaction rate (v) was indicative of the free enzyme (E) present at the end of the respective preincubation times. Enzyme inhibitor association is represented as: [formula] for kdissoc .perspectiveto.0 and equimolar concentrations of E and I we get
# With initial conditions t=0, E=Eo (all free enzyme) equation (2) integrates to
# By defining half life of the reaction t0.5 to be at E=0.5Eo we get
# The initial reaction rate (Δ absorbance/5 minutes) depicts the hydrolysis rate of the substrate by the free enzyme present following the respective preincubation time. Initial reaction rate, in the absence of the inhibitor, was determined and the time required for this rate to decrease to half of its original value (t0.5) was calculated. Equation (4) was subsequently used to calculate kassoc for each of the 3 cases.
# [3] = biological target: T2, Porcine pancreatic elastase type III; assay: Elastase inhibitory capacity (EIC) assay with chromogenic substrate SA3 pNA; assay type: biochemical; details: for % EIC Recovered: recovery across covalent coupling
# Excerpt: Porcine pancreatic elastase type III and chromogenic substrate N-succinyl-L-anlanyl-L-alanyl-L-alanyl-p-nitroanilide (SA3 pNA) were obtained from Sigma Chemicals Co. (St. Louis, MO). Hydrolysis of the chromogenic substrate by the elastase liberates p-nitroaniline which gives a yellow color whose absorbance is measurable spectrophotometrically (Model 1084 UV Spectrophotometer, Gilford Instruments, Oberlin, OH) at 405 nm.
# Comparisons of the linear changes of absorbance with time both in the presence and in the absence of sample alpha-l-proteinase inhibitor and of sample alpha-l-proteinase inhibitor-dextran covalent complex were made. The amount of inhibitor was then calculated based on the known molecular weights of the elastase and alpha-l-proteinase inhibitor, on the known 1:1 stoichrometry, and on the known amount of elastase used. A pool of normal human plasma (>1000 donors) was used as the standard and assigned a value of 1 μ/ml of α1 PI.
# [4] = tested on: Antiserum (rabbit anti-human) to alpha-l-proteinase inhibitor; assay: Precipitin reaction with rabbit antiserum to the unmodified protein; assay type: binding; details: for Precipitin Reaction: rabbit antiserum dil. 1:2; for Amount of protein needed to obtain a strong precipitin reaction: rabbit antiserum to the unmodified protein
# Experimental: Antiserum (rabbit anti-human) to alpha-l-proteinase inhibitor was obtained from Miles Laboratories (Elkhart, IN).
# For unmodified alpha-1-proteinase inhibitor, only 0.092 μg of protein was sufficient to obtain a strong precipitin reaction. For the 0.117 moles dextran/mole alpha-1-proteinase inhibitor conjugate, 14.5 μg of alpha-1-proteinase inhibitor was needed to elicit a similar response--a very significant increase of antigen concentration. For the 0.585 moles dextran/mole alpha-1-proteinase inhibitor conjugate increase of antigen concentration up to 29.0 μg was not sufficient to obtain a strong precipitin reaction with the antiserum.
# elastase [5] = biological target: T1, elastase; assay: Heat stability at 60° C., EIC readout; assay type: physicochemical, porcine; details: within 60 minutes (FIG. 1)
# Experimental: Alpha-1-proteinase inhibitor and its dextran conjugates, with and without added beef liver catalase as antioxidant, were heated in closed tubes at 60±0.2° C. The tubes were preheated and due to large mass difference the samples reached the bath temperature in less than 60 seconds. At designated time intervals samples were withdrawn and instantaneously cooled down (by ice bath) to room temperature prior to assay.
# A significant difference here is observed between the native protein and its conjugates.
# porcine elastase = details: each at 1.4×10^-8 M; Beatty et al, J. Biol. Chem., 255, 3931 (1980); cited from earlier work
# elastase [6] = biological target: T1, elastase; assay: Oxidative inactivation by H2O2, recovery of EIC; assay type: physicochemical, porcine; details: 0-28 mM H2O2, 37° C., 1 hour, pH 7.4 (FIG. 2)
# Experimental: Hydrogen peroxide (30% solution, Sigma Chemicals) was used as the oxidation agent to investigate the effect of 0-28 mM H2 O2 on the recovery of elastase inhibitory capacity (EIC) following incubation at 37° C. for 1 hour.
# FIG. 2 (oxidation at pH 7.4) depicts the effects of various concentrations of H2 O2 on the samples. […] It is to be understood that any antioxidant enzyme may be used, e.g. catalase or an equivalent enzyme such as superoxide dismutase.
# [7] = bovine liver catalase modified with methoxypolyethylene glycol; Abuchowski et al; cited from earlier work
# T2 sequence (P00772 27-266): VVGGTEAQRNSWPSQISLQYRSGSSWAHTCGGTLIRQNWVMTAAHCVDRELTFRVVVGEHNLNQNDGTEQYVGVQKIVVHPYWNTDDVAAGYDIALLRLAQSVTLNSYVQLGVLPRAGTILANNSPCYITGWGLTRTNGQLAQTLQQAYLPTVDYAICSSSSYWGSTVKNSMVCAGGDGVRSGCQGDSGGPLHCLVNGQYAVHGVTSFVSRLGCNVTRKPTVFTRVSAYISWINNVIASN
# T1 sequence (P00772 27-266): as above
molecule,measurement,setting,value
"4: alpha-1-proteinase inhibitor-dextran complex, dextran mol. wt. 10,300, 100 mg inhibitor per gram of dextran, ratio 0.117 [Example 4]","Recovery of EIC as % of Control After Adjustment to pH 7.4, Incubation Time 24 hrs. (5° C.)",elastase [1],81%
same,"Recovery of EIC as % of Control After Adjustment to pH 7.4, Immediate",elastase [1],68%
same,t0.5 (half life of the enzyme-inhibitor association reaction),[2],21.49 s
same,"kassoc, rate constant for the association between the enzyme and the inhibitor",[2],141000 M⁻¹ s⁻¹
same,Initial Reac. Rate,[2]; preincubation time 20 secs.,0.450 Δ absorbance/5 minutes
same,Initial Reac. Rate,[2]; preincubation time 45 secs.,0.285 Δ absorbance/5 minutes
same,Initial Reac. Rate,[2]; preincubation time 75 secs.,0.195 Δ absorbance/5 minutes
same,Initial Reac. Rate,[2]; preincubation time 120 secs.,0.130 Δ absorbance/5 minutes
same,% EIC Recovered,[3],28.8%
same,Precipitin Reaction,[4]; antigen conc. 14.5 μg,Strong
same,Amount of protein needed to obtain a strong precipitin reaction,[4],14.5 µg
"5: alpha-1-proteinase inhibitor-dextran complex, dextran mol. wt. 10,300, 20 mg inhibitor per gram of dextran, ratio 0.585 [Example 5]","Recovery of EIC as % of Control After Adjustment to pH 7.4, Immediate",elastase [1],55%
same,t0.5 (half life of the enzyme-inhibitor association reaction),[2],34.67 s
same,"kassoc, rate constant for the association between the enzyme and the inhibitor",[2],85600 M⁻¹ s⁻¹
same,Initial Reac. Rate,[2]; preincubation time 25 secs.,0.495 Δ absorbance/5 minutes
same,Initial Reac. Rate,[2]; preincubation time 65 secs.,0.285 Δ absorbance/5 minutes
same,Initial Reac. Rate,[2]; preincubation time 100 secs.,0.205 Δ absorbance/5 minutes
same,Initial Reac. Rate,[2]; preincubation time 145 secs.,0.135 Δ absorbance/5 minutes
same,% EIC Recovered,[3],18.4%
same,Precipitin Reaction,[4]; antigen conc. 1.95 μg,Weak
same,Precipitin Reaction,[4]; antigen conc. 29.0 μg,Weak
same,Amount of protein needed to obtain a strong precipitin reaction,[4],> 29.0 µg
"Native α1 PI: human plasma glycoprotein alpha-1-proteinase inhibitor, molecular weight 53,000, purified from Cohn Fraction IV-1",Loss of initial activity (EIC) on heating,elastase [5],> 90%
same,"Recovery of EIC as % of Control After Adjustment to pH 7.4, Incubation Time 24 hrs. (5° C.)",elastase [1],66%
same,kassoc,porcine elastase,1×10^5 M^-1 sec.^-1
same,"kassoc, rate constant for the association between the enzyme and the inhibitor",[2],185000 M⁻¹ s⁻¹
same,"kassoc, rate constant for the association between the enzyme and the inhibitor",[2]; listed as native protein,185000 M⁻¹ s⁻¹
same,Initial Reac. Rate,[2]; preincubation time 15 secs.,0.460 Δ absorbance/5 minutes
same,Initial Reac. Rate,[2]; preincubation time 30 secs.,0.310 Δ absorbance/5 minutes
same,Initial Reac. Rate,[2]; preincubation time 60 secs.,0.173 Δ absorbance/5 minutes
same,Initial Reac. Rate,[2]; preincubation time 65 secs.,0.170 Δ absorbance/5 minutes
same,Initial Reac. Rate,[2]; preincubation time 90 secs.,0.128 Δ absorbance/5 minutes
same,Elastase inhibitory capacity/mg total protein,[3]; purified from Cohn Fraction IV-1,1.5
same,Precipitin Reaction,[4]; antigen conc. 0.092 μg,Strong
same,Amount of protein needed to obtain a strong precipitin reaction,[4],0.092 µg
same,Effect of H2O2 oxidation on EIC,elastase [6],significant progressive loss of EIC
B1,Retained enzymatic activity,[7],93%
B2,Retained enzymatic activity,[7],95%
